Columns and labels:
[1] = test system: T1, SSTR2; assay: in vivo; details: female, Wistar, rat, iv, total radioactivity
T1 construct: from tissue; host or cells: female Wistar rats in vivo (adrenals, pituitary, pancreas)
Experimental: Dynamic PET scans were performed on a small animal PET/MR scanner based on previously reported protocol. Briefly, female Wistar rats (208-231 g) were anaesthetized with a 5% isoflurane/ oxygen mixture before being maintained at 1-2% isoflurane/1 L/minute throughout the experiment. Rats tail veins were cannulated before being placed in the imaging cell (Bruker Biospin) which was then placed into the scanner; temperature and respiration were monitored throughout the scanning via a physiological monitoring system (SA Instruments, Stony Brook, NY, USA). Rats were injected with [^18F]AlF-3p-C-NETA-TATE (5.5-18.5 MBq, apparent molar activity 22 ± 8 GBq/μmol) at the start of the PET acquisition in presence or absence of octreotide acetate (2.5 mg/kg co-injection with radiopharmaceutical; blocking scans were performed the following day in the same animals). 75 min scans were carried out with the pituitary to kidneys in the PET FOV, during which respiration-gated 3D spin-echo MRI (TurboRARE sequence, TR = 500 mseconds (ms), TE = 18.8 ms, RARE factor = 8, FOV 14x6x6 cm, isotropic resolution of 0.5 mm) images were acquired with a quadrature radio-frequency resonator (transmit/receive, 86 mm internal diameter, Bruker Biospin). PET and MRI scans were then repeated at 100-120 minutes with the animal in the same position. Dynamic PET data were divided into timeframes (4×15 s, 1×240 s, 7×600 s) with corrections for decay, randoms, scatter and deadtime and then reconstructed using an MLEM algorithm with 24 iterations and an isotropic voxel size of 0.5 mm. PET images were normalized to injected activity and animal weight to give standardized uptake values (SUV), and selected organs were outlined to create volumes of interest after coregistration with MR images of which SUVmean values are reported; a circular VOI was placed over the splenic division of the pancreas (as visualised via tracer uptake and mapped to the blocked scan) to determine pancreatic uptake. All image analysis was carried out using the PFUSIT module of PMOD (v 4.004, PMOD Technologies Ltd., Zurich, Switzerland). Quantitative data are expressed as mean ± standard error of the mean (SEM).

[2] = target: T2, SSTR2 (Rattus norvegicus, UniProt P30680); parameters: method as in PMID 31997090; details: naïve rats, 2 h p.i.; cited from earlier work
T2 construct: from tissue; host or cells: female Wistar rats in vivo (adrenals, pituitary, pancreas)
T2 sequence (P30680 whole entry): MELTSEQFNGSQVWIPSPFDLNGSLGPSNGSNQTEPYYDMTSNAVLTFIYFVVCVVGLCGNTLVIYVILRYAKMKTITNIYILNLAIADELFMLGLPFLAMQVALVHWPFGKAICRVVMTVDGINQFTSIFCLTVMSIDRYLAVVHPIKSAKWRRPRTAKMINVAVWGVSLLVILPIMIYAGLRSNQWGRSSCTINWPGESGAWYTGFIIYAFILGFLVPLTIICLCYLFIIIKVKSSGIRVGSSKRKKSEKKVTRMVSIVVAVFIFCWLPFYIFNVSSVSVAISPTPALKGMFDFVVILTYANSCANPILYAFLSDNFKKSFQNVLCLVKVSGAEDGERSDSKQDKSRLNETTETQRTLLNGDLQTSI

| Molecule | SUV at 1.25 h ([1]; 2.5 mg/kg, SUV adrenals) | SUV at 2 h ([1]; 2.5 mg/kg, SUV adrenals) | SUV at 1.25 h ([1]; 2.5 mg/kg, SUV pancreas) | SUV at 2 h ([1]; 2.5 mg/kg, SUV pancreas) | SUV at 1.25 h ([1]; 2.5 mg/kg, SUV pituitary) | SUV at 2 h ([1]; 2.5 mg/kg, SUV pituitary) | SUV at 1.25 h ([1]; SUV adrenals) | SUV at 2 h ([1]; SUV adrenals) | SUV at 2 h ([1]; SUV blood and non-SSTR2 expressing organs) | SUV at 2 h ([1]; SUV bone uptake in the spine) | SUV at 1.25 h ([1]; SUV pancreas) | SUV at 2 h ([1]; SUV pancreas) | SUV at 1.25 h ([1]; SUV pituitary) | SUV at 2 h ([1]; SUV pituitary) | SUV bone uptake in the spine [2] |
| --- | --- | --- | --- | --- | --- | --- | --- | --- | --- | --- | --- | --- | --- | --- | --- |
| C[C@@H](O)[C@H](NC(=O)[C@@H]1CSSC[C@H](NC(=O)[C@@H](Cc2ccccc2)NC(=O)CCC(=O)Nc2ccc(CCCC(CN3CCN(CC(=O)O)CCN(CC(=O)O)CC3)N(CC(=O)O)CC(=O)O)cc2)C(=O)N[C@@H](Cc2ccc(O)cc2)C(=O)N[C@H](Cc2c[nH]c3ccccc23)C(=O)N[C@@H](CCCCN)C(=O)N[C@@H]([C@@H](C)O)C(=O)N1)C(=O)O (stereo partly drawn) [[^18F]AlF-3p-C-NETA-TATE] | 0.24 ± 0.03 SUV | 0.18 ± 0.04 SUV | 0.34 ± 0.2 SUV | 0.31 ± 0.07 SUV | 0.2 ± 0.04 SUV | 0.21 ± 0.06 SUV | 1.2 ± 0.59 SUV | 1.22 ± 0.65 SUV | < 0.6 SUV | 0.43 ± 0.25 SUV | 7.78 ± 4.26 SUV | 8.35 ± 5.07 SUV | 0.93 ± 0.34 SUV | 0.93 ± 0.36 SUV |  |
| [^18F]AlF-NOTA-Octreotide |  |  |  |  |  |  |  |  |  |  |  |  |  |  | 0.45 ± 0.03 |
